The target of experiment [1] is T1, GST-SMN fusion protein (human, UniProt Q16637 1-294).
T1 construct: Recombinant from E. coli, immobilised on glutathione-Sepharose; also called GST-SMNwt; GST-SMN chimeric protein; not shown: glutathione S-transferase (GST) tag of vector pGEX-5X
Nature of the experiment: GST pull-down, 35S IVT protein (FIG. 44).

Experiment [2] has as its target Sm D1 protein, in vitro translated and 35S-labeled (UniProt P62314 1-119). Nature of the experiment: GST pull-down, 35S IVT protein.
The target in a further experiment is T2, GST alone (UniProt P08515 1-218 = GST).
T2 construct: Negative control on glutathione-Sepharose; also called glutathione S-transferase
Nature of the experiment: GST pull-down, 35S IVT protein.

Experiment [3] addresses T3, SMN, endogenous protein in human cell extracts (human, UniProt Q16637 2-294).
T3 construct: also called Survival of Motor Neurons protein
As to the kind of experiment: co-IP with 2B1 from transfected 293T cells, Western blot.

Experiment [4] concerns the target T4, His-tagged SMNY272C, purified recombinant (human, UniProt Q16637 1-294).
T4 construct: also called His-SMNY272C; SMNY272C recombinant protein; not shown: His6 tag (pET28 vector)
Nature of the experiment: in vitro binding of purified recombinant protein to GST-SIP1.

The target in experiment [5] is T5, His-tagged SMN wild type, purified recombinant (human, UniProt Q16637 1-294).
T5 construct: E. coli BL21(DE3)pLysS, nickel chelation chromatography; also called His-SMN; His6-SMN; not shown: His6 tag (pET28 vector, detected with anti-T7 tag antibody)
The experiment is described as above.

Experiment [6] concerns the target recombinant SMN protein (far-Western target) (human, UniProt Q16637 1-294, limits assumed). As to the kind of experiment: far-Western with in vitro translated SIP1.
The target of another experiment is T6, myc-tagged SMN wild type (human, UniProt Q16637 1-294).
T6 construct: In vitro translated (35S) or expressed in transfected 293T cells; also called myc-SMN; mycSMN
As to the kind of experiment: co-IP with 2E17 from transfected 293T cells, Western blot (association in a complex).

Experiment [7] concerns the target T3, SMN, endogenous protein in human cell …. Nature of the experiment: gel filtration (Superose 6 HR 10/30) of HeLa S100, Western blot.
The next experiment concerns the target T7, myc-tagged SMNY272C (human, UniProt Q16637 1-294).
T7 construct: In vitro translated (35S) or expressed in 293T cells
Nature of the experiment: co-IP with 2E17 from transfected 293T cells, Western blot.

For experiment [8], the target named is T1, GST-SMN fusion protein. As to the kind of experiment: GST pull-down, 35S IVT protein.

T1 sequence (Q16637 whole entry, the tested form may be a part): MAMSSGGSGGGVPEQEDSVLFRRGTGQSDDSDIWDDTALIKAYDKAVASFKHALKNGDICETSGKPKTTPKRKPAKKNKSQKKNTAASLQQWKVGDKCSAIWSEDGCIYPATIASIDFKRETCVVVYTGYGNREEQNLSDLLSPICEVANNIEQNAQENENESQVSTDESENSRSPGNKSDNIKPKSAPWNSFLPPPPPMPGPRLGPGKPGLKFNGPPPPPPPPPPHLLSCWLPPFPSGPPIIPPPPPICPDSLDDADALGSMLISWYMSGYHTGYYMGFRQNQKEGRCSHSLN
T3 sequence (Q16637 2-294 limits assumed): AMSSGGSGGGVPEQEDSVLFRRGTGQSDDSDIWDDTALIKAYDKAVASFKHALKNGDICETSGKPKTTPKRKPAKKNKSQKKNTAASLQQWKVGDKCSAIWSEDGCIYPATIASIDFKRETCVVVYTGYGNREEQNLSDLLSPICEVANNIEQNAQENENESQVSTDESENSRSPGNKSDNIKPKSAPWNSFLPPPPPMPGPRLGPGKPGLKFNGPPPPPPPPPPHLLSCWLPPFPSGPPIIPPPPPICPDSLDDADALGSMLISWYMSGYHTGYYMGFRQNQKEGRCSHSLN
T2 sequence (P08515 whole entry): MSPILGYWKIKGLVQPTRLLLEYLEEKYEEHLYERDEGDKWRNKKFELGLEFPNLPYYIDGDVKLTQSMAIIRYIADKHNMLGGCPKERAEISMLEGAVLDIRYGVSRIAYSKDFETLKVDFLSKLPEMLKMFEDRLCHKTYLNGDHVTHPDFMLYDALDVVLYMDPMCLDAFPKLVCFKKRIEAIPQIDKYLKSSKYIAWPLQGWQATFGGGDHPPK
T7 sequence (Q16637 whole entry Y272C): as the sequence (Q16637 whole entry, the tested form may be a part) above, with Y272C counted along it
T4 sequence (Q16637 whole entry Y272C): as the sequence (Q16637 whole entry, the tested form may be a part) above, with Y272C counted along it
T6 sequence (Q16637 whole entry): as the sequence (Q16637 whole entry, the tested form may be a part) above
T5 sequence (Q16637 whole entry): as the sequence (Q16637 whole entry, the tested form may be a part) above
recombinant SMN protein (far-Western target), sequence (Q16637 whole entry): as the sequence (Q16637 whole entry, the tested form may be a part) above

B1: myc-tagged SIP1ΔC162 (other, not shown: small tags and cut ends)
chain: MRRAELAGLKTMAWVPAESAVEELMPRLLPVEPCDLTEGFDPSVPPRTPQEYLRRVQIEAAQCPDVVVAQIDPKKLKRKQSVNISLSGCQPAPEGYSPTLQWQQQQVAQFSTVRQNVN
Regarding B1, in the experiment with GST-SMN fusion protein [1], the binding result was “no binding”.

B2: GST-Gemin3 fusion protein (other)
chain: MAAAFEASGALAAVATAMPAEHVAVQVPAPEPTPGPVRILRTAQDLSSPRTRTGDVLLAEPADFESLLLSRPVLEGLRAAGFERPSPVQLKAIPLGRCGLDLIVQAKSGTGKTCVFSTIALDSLVLENLSTQILILAPTREIAVQIHSVITAIGIKMEGLECHVFIGGTPLSQDKTRLKKCHIAVGSPGRIKQLIELDYLNPGSIRLFILDEADKLLEEGSFQEQINWIYSSLPASKQMLAVSATYPEFLANALTKYMRDPTFVRLNSSDPSLIGLKQYYKVVNSYPLAHKVFEEKTQHLQELFSRIPFNQALVFSNLHSRAQHLADILSSKGFPAECISGNMNQNQRLDAMAKLKHFHCRVLISTDLTSRGIDAEKVNLVVNLDVPLDWETYMHRIGRAGRFGTLGLTVTYCCRGEEENMMMRIAQKCNINLLPLPDPIPSGLMEECVDWDVEVKAAVHTYGIASVPNQPLKKQIQKIERTLQIQKAHGDHMASSRNNSVSGLSVKSKNNTKQKLPVKSHSECGIIEKATSPKELGCDRQSEEQMKNSVQTPVENSTNSQHQVKEALPVSLPQIPCLSSFKIHQPYTLTFAELVEDYEHYIKEGLEKPVEIIRHYTGPGDQTVNPQNGFVRNKVIEQKVPVLASSSQSGDSESDSDSYSSRTSSQSKGNKSYLESSSDNQLKDSESTPVDDRISLEQPPNGTDTPNPEKYQESPGIQMKTRLKEGASQRAKQSRRNLPRRSSFRLQTEAQEDDWYDCHREIRLSFSDTYQDYEEYWRAYYRAWQEYYAAASHSYYWNAQRHPSWMAAYHMNTIYLQEMMHSNQ
notes: also called Gemin3-GST; not shown: glutathione S-transferase (GST) tag of vector pGEX-5X-3
As to B2, the binding result in experiment [2] is recorded as “no binding”.

B3: myc-ΔN368C277Gemin3 (other, not shown: small tags and cut ends)
chain: TSRGIDAEKVNLVVNLDVPLDWETYMHRIGRAGRFGTLGLTVTYCCRGEEENMMMRIAQKCNINLLPLPDPIPSGLMEECVDWDVEVKAAVHTYGIASVPNQPLKKQIQKIERTLQIQKAHGDHMASSRNNSVSGLSVKSKNNTKQKLPVKSHSECGIIEKATSPKELGCDRQSEEQMK
notes: also called ΔN368C272Gemin3
B3: the binding result with GST alone is listed as “no binding”.

B4: myc-tagged SIP1ΔC89 (other, not shown: small tags and cut ends)
chain: MRRAELAGLKTMAWVPAESAVEELMPRLLPVEPCDLTEGFDPSVPPRTPQEYLRRVQIEAAQCPDVVVAQIDPKKLKRKQSVNISLSGCQPAPEGYSPTLQWQQQQVAQFSTVRQNVNKHRSHWKSQQLDSNVTMPKSEDEEGWKKFCLGEKLCADGAVGPATNESPGIDYVQIGFPPLLSIVSRMNQATV
notes: The whole entry must be cut by 89 residues at the C-terminus
Turning to B4, the binding result (in experiment [3]; with GST-SMN fusion protein [1]) was “no binding” throughout.

B5: GST-SIP1 fusion protein (other, not shown: a dimerising Fc or GST)
chain: MRRAELAGLKTMAWVPAESAVEELMPRLLPVEPCDLTEGFDPSVPPRTPQEYLRRVQIEAAQCPDVVVAQIDPKKLKRKQSVNISLSGCQPAPEGYSPTLQWQQQQVAQFSTVRQNVNKHRSHWKSQQLDSNVTMPKSEDEEGWKKFCLGEKLCADGAVGPATNESPGIDYVQIGFPPLLSIVSRMNQATVTSVLEYLSNWFGERDFTPELGRWLYALLACLEKPLLPEAHSLIRQLARRCSEVRLLVDSKDDERVPALNLLICLVSRYFDQRDLADEPS
For the molecule B5, the binding result in experiment [4] and in [5] was “binds” each time.

B6: SIP1 (human), in vitro translated and 35S-labeled (other)
chain: B5 chain
notes: Made in rabbit reticulocyte lysate; also called full-length SIP1; Gemin2
As to B6, in experiment [6], the binding result is listed as “binds”.

B7: myc-tagged SIP1 wild type (other, not shown: small tags and cut ends)
chain: B5 chain
notes: In vitro translated (35S) or expressed in 293T cells; also called myc-SIP1; myc-Gemin2
For B7, the binding result in experiment [3] is on record as “binds”.

B8: SIP1 (Gemin2), endogenous protein in human cell extracts (other)
chain: B5 chain
B8: the binding result (with myc-tagged SMN wild type; in [7]; in the experiment with myc-tagged SMNY272C) was “binds” throughout.

B9: myc-ΔN548Gemin3 (other, not shown: small tags and cut ends)
chain: SVQTPVENSTNSQHQVKEALPVSLPQIPCLSSFKIHQPYTLTFAELVEDYEHYIKEGLEKPVEIIRHYTGPGDQTVNPQNGFVRNKVIEQKVPVLASSSQSGDSESDSDSYSSRTSSQSKGNKSYLESSSDNQLKDSESTPVDDRISLEQPPNGTDTPNPEKYQESPGIQMKTRLKEGASQRAKQSRRNLPRRSSFRLQTEAQEDDWYDCHREIRLSFSDTYQDYEEYWRAYYRAWQEYYAAASHSYYWNAQRHPSWMAAYHMNTIYLQEMMHSNQ
Turning to B9, the binding result with GST-SMN fusion protein [8] was “no binding”.

Source of the values: patent US6646113 (University of Pennsylvania, dated 2003).
